Measured values reported in patent US6613536B1, “Synthetic peptides and pharmaceutical compositions comprising them for the treatment of systemic lupus erythematosus” (Yeda Research and Development Co. Ltd., priority 1995, dated 2003).

Assays:
[1] = molecular target: T1, MHC class II products on splenic antigen-presenting cells (APC) (Mus musculus, UniProt P14434+P14483); assay: Inhibition of peptide binding to APC by anti-Ia mAb; set-up: concentration or dose not given beside the values
T1 construct: Splenic adherent cells (10^6/100 μl/tube) isolated from BALB/c, SJL, C3H.SW or C57BL/6 mice; from tissue; host or cells: mouse spleen adherent cells (BALB/c, SJL, C3H.SW, C57BL/6)
T1 sequence (P14434 24-256): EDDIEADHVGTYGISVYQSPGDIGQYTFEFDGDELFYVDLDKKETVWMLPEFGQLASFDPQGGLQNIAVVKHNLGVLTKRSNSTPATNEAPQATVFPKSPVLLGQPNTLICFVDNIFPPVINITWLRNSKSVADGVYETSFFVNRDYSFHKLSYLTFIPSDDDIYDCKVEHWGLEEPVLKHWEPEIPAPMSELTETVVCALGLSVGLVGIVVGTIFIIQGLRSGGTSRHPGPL
T1 sequence (P14483 28-265): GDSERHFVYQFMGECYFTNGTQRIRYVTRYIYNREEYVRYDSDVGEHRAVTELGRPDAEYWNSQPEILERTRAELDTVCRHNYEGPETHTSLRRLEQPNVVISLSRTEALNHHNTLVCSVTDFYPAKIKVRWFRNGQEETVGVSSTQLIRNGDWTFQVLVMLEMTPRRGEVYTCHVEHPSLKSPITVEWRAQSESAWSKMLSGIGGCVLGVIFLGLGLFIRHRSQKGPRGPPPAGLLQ
Procedure: (§1) Spleen cells suspended in RPMI 1640 medium containing 10% FCS were incubated in Petri dishes for 60 min at 37° C. Thereafter, non-adherent cells were removed, the plates were washed, and the adherent cells were collected from the plates using a rubber policeman (Costar, Mass., USA). These cells (1×10^6/100 μl/tube) were incubated with the biotinylated peptides in PBS containing 0.1% BSA (high purity grade, Amresco, Ohio, USA) for 16 hr at 37° C., followed by incubation with phycoerythrin (PE)-streptavidin (Jackson ImmunoResearch) for 30 min at 4° C. Thereafter the samples were incubated with biotinylated anti-streptavidin (1:60, Vector Laboratories, Burlingame, Calif.) and for an additional period with PE-streptavidin, all for 30 min at 4° C. The cells were washed twice with cold PBS/BSA solution after each incubation. Thereafter, cells were analyzed by flow cytometry using the FACSort cytometer and CELLQuest software (Beckton-Dickinson, Mountain View, Calif.). […]
(§2) Binding of the CDR-based peptides Ia and IIIa to APC was determined as described in Materials and Methods herein and the results are shown in Table 2. […] The results are shown in Table 3: Inhibition of binding was specific and ranged from 60% to 100%.

[2] = molecular target: T2, MHC class II products on splenic antigen-presenting cells (APC) (Mus musculus, UniProt P01921+P04228); assay: as above; set-up: concentration or dose not given beside the values; conditions: BALB/c, H-2 d
T2 construct: Splenic adherent cells (10^6/100 μl/tube) isolated from BALB/c, SJL, C3H.SW or C57BL/6 mice; from tissue; host or cells: mouse spleen adherent cells (BALB/c, SJL, C3H.SW, C57BL/6)
T2 sequence (P04228 24-256): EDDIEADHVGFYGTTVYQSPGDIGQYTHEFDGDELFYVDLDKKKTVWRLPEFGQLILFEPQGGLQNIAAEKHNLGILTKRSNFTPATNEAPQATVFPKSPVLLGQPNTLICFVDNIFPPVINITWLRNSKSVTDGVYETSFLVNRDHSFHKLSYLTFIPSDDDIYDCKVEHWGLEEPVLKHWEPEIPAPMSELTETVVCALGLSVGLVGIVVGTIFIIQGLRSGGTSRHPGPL
T2 sequence (P01921 28-265): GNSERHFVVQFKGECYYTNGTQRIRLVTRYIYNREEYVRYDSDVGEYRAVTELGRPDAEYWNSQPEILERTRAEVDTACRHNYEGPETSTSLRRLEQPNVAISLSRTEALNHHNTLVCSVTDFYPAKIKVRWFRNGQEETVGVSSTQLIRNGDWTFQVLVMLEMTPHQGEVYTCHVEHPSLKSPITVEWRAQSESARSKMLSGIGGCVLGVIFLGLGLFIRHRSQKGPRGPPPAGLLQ
Procedure: as §1, §2

[3] = molecular target: T3, MHC class II products on splenic antigen-presenting cells (APC) (Mus musculus, UniProt P06345+P14437); assay: as above; set-up: concentration or dose not given beside the values; conditions: SJL, H-2 s
T3 construct: Splenic adherent cells (10^6/100 μl/tube) isolated from BALB/c, SJL, C3H.SW or C57BL/6 mice; from tissue; host or cells: mouse spleen adherent cells (BALB/c, SJL, C3H.SW, C57BL/6)
T3 sequence (P14437 1-233): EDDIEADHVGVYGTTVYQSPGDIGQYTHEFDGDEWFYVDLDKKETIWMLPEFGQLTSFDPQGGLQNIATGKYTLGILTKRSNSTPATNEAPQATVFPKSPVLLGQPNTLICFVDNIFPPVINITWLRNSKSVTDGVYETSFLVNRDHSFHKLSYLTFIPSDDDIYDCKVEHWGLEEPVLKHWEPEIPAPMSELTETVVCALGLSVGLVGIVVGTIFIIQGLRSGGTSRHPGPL
T3 sequence (P06345 28-263): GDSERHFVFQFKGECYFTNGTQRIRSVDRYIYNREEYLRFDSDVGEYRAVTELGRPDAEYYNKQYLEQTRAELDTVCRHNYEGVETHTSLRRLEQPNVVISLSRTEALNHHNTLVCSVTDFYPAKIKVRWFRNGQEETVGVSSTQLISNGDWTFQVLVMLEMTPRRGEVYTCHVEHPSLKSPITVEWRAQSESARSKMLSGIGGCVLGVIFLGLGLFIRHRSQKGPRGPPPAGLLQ
Procedure: as §1, §2

[4] = system: peripheral blood lymphocytes (PBL); assay: IL-2 production by PBL of SLE patients and healthy controls; type: cell-based, human; conditions: sample at 24 hr
Procedure: PBL from human SLE patients and of the appropriate control donors (2×10^5/well) were cultured in microtiter plates in enriched medium containing 10% pooled AB sera in the presence of the human or mouse monoclonal 16/6 Id antibody, in the presence of peptides of the invention or in the presence of phytohemagglutinin (PHA). The rate of proliferation was evaluated by the incorporation of ^3[H]-thymidine in the cell culture. Non-relevant peptides were used as specificity controls. Antigen and mitogen-stimulated cytokine production was quantitated in the supernatants of the above cultures using either the cytokine-dependent lines or the appropriate pairs of antibodies in ELISA assays. Inhibition of the proliferative responses was performed in vitro by adding increasing doses of the tested peptide analogs into the proliferative culture mixtures.
PBL were isolated from blood of SLE patients or healthy controls using ficol gradient, and were incubated as in Example 13. A sample of 50 μl was removed 24 hr after the assay was started, and incubated in the presence of IL-2 sensitive cells (CTLD) for 24 hr, after which ^3H-thymidine was added for 16 hr, and the plates were harvested and counted on a beta counter.

[5] = C3H.SW, H-2 b, mAb anti I-A^b (34-5-3)
[6] = C3H.SW, H-2 b, mAb anti I-A^d (MKD6)
[7] = C57BL/6, H-2 b, mAb anti I-A^b (34-5-3)
[8] = C57BL/6, H-2 b, mAb anti I-A^d (MKD6)

Substance: YYYCARFLWEPYAMDYWGQGS (YYCARFLWEPYAMDYWGQGS) [peptide IIIa, based on the CDR3 region of the VH chain of mAb 5G12]
- % inhibition of binding to APC [1, 5]: 84.4%
- % inhibition of binding to APC [1, 6]: 25%
- % inhibition of binding to APC [1, 7]: 59.3%
- % inhibition of binding to APC [1, 8]: 0%
- % inhibition of binding to APC ([2]; mAb anti I-A^b (34-5-3)): 0%
- % inhibition of binding to APC ([2]; mAb anti I-A^d (MKD6)): 100%
- % inhibition of binding to APC ([3]; mAb anti I-A^d (MKD6)): 0%
- % inhibition of binding to APC ([3]; mAb anti I-A^s (10.3.6.2)): 92.8%
- IL-2 production by PBL, actual number of responders ([4]; SLE patients): 5/32
- IL-2 production by PBL, percentage of responders ([4]; SLE patients): 16%
- IL-2 production by PBL, actual number of responders ([4]; healthy controls): 16/25
- IL-2 production by PBL, percentage of responders ([4]; healthy controls): 64%

Substance: TGYYMQWVKQSPEKSLEWIG [peptide Ia]
- % inhibition of binding to APC [1, 5]: 60%
- % inhibition of binding to APC [1, 6]: 0%
- % inhibition of binding to APC [1, 7]: 82%
- % inhibition of binding to APC [1, 8]: 0%
- % inhibition of binding to APC ([2]; mAb anti I-A^b (34-5-3)): 0%
- % inhibition of binding to APC ([2]; mAb anti I-A^d (MKD6)): 76.7%
- % inhibition of binding to APC ([3]; mAb anti I-A^d (MKD6)): 0%
- % inhibition of binding to APC ([3]; mAb anti I-A^s (10.3.6.2)): 100%
- IL-2 production by PBL, actual number of responders ([4]; SLE patients): 5/32
- IL-2 production by PBL, percentage of responders ([4]; SLE patients): 16%
- IL-2 production by PBL, actual number of responders ([4]; healthy controls): 14/25
- IL-2 production by PBL, percentage of responders ([4]; healthy controls): 56%
